# Experimental data from patent US12104181 (University of Texas, dated 2024).
# Target: T1, TRIM7-3F (TRIM7 with C-terminal 3×FLAG epitope) (human, UniProt Q9C029 1-511)
# T1 construct: also called WT TRIM7-3F; 3×Flag-tagged TRIM7
# Test: co-IP with anti-HA beads from co-transfected 293T cells, Western blot
binder,measurement,value
"HA-tagged MenV 2BC (other, domain: 2BC) PFTFKPRQRPVFQTQGAAVSSMAQTLLPNDLASKAMGSAFTALLDANEDAQKAMKIIKTLSSLSDAWENVKGTLNNPEFWKQLLSRCVQLIAGMTIAVMHPDPLTLLCLGVLTAAEITSQTSLCEEIAAKFKTIFTTPPPRFPVISLFQQQSPLKQVNDVFSLAKNLDWAVKTVEKVVDWFGTWVAQEEREQTLDQLLQRFPEHAKRISDLRNGMAAYVECKESFDFFEKLYNQAVKEKRTGIAAVCEKFRQKHDHATARCEPVVIVLRGDAGQGKSLSSQIIAQAVSKTIFGRQSVYSLPPDSDFFDGYENQFAAIMDDLGQNPDGSDFTTFCQMVSTTNLLPNMASLERKGTPFTSQLVVATTNLPEFRPVTIAHYPAVERRITFDYSVSAGPVCSKTEAGCKVLDVERAFRPTGDAPLPCFQNNCLFLEKAGLQFRDNRSKEILSLVDVIERAVTRIERKKKVLTAVQTLVAQ",binding result,no binding
